Data reported in US20140087995A1 (published 2014).
Numbered stars: 1 amine (or outer) side, 2 acyl side, 3 side chain; on linkers, the order of the positions; unused ones are H or OH. Bridge positions count the residues as written; N and C are the ends. Side chains are listed from the residue outwards. Ends that are not written are not given here. * marks the point of attachment. C20 diacid = O=C(O)CCCCCCCCCCCCCCCCCCC(=O)*; C16 diacid = O=C(O)CCCCCCCCCCCCCCC(=O)*; γGlu = O=C(O)[C@H](CCC(=O)[*:2])N[*:1]; C14 diacid = O=C(O)CCCCCCCCCCCCC(=O)*

T1: human calcitonin receptor (human, UniProt P30988 25-474)
T1 construct: whole, on cells; also called hCTR; hCT
T1 sequence (looked up): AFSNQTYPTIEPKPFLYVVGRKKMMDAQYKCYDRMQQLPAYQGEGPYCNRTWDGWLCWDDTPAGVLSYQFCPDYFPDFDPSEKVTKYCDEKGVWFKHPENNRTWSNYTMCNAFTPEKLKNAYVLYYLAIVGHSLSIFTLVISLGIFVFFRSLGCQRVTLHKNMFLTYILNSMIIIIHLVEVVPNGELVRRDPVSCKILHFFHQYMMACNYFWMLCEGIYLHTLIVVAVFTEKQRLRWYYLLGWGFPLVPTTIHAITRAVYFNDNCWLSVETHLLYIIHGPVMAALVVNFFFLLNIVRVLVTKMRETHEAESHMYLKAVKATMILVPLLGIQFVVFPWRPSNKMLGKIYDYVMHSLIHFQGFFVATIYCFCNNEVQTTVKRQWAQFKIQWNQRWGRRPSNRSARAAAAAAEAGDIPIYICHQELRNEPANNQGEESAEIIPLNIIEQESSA

B1: N^-1-[(4S)-4-carboxy-4-(19-carboxynonadecanoylamino)butanoyl]-Gly[Arg1,His14,Arg17,Pro21,Pro27,His34]-h-amylin (peptide)
peptide: {C20 diacid-γGlu}-GRCNTATCATQRLAHFLRHSSPNFGAIPSSTNVGHNTY-NH2
modifications: disulfide 3-8
SMILES: CC[C@H](C)[C@H](NC(=O)[C@H](C)NC(=O)CNC(=O)[C@H](Cc1ccccc1)NC(=O)[C@H](CC(N)=O)NC(=O)[C@@H]1CCCN1C(=O)[C@H](CO)NC(=O)[C@H](CO)NC(=O)[C@H](Cc1c[nH]cn1)NC(=O)[C@H](CCCNC(=N)N)NC(=O)[C@H](CC(C)C)NC(=O)[C@H](Cc1ccccc1)NC(=O)[C@H](Cc1c[nH]cn1)NC(=O)[C@H](C)NC(=O)[C@H](CC(C)C)NC(=O)[C@H](CCCNC(=N)N)NC(=O)[C@H](CCC(N)=O)NC(=O)[C@@H](NC(=O)[C@H](C)NC(=O)[C@@H]1CSSC[C@H](NC(=O)[C@H](CCCNC(=N)N)NC(=O)CNC(=O)CC[C@H](NC(=O)CCCCCCCCCCCCCCCCCCC(=O)O)C(=O)O)C(=O)N[C@@H](CC(N)=O)C(=O)N[C@@H]([C@@H](C)O)C(=O)N[C@@H](C)C(=O)N[C@@H]([C@@H](C)O)C(=O)N1)[C@@H](C)O)C(=O)N1CCC[C@H]1C(=O)N[C@@H](CO)C(=O)N[C@@H](CO)C(=O)N[C@H](C(=O)N[C@@H](CC(N)=O)C(=O)N[C@H](C(=O)NCC(=O)N[C@@H](Cc1c[nH]cn1)C(=O)N[C@@H](CC(N)=O)C(=O)N[C@H](C(=O)N[C@@H](Cc1ccc(O)cc1)C(N)=O)[C@@H](C)O)C(C)C)[C@@H](C)O
notes: also called compound 100
B2: N^-1-[(4S)-4-carboxy-4-(19-carboxynonadecanoylamino)butanoyl]-Gly[Arg1,Ala14,Arg17,Pro21,Pro27,His34]-h-amylin (peptide)
peptide: {C20 diacid-γGlu}-GRCNTATCATQRLAAFLRHSSPNFGAIPSSTNVGHNTY-NH2
modifications: disulfide 3-8
SMILES: CC[C@H](C)[C@H](NC(=O)[C@H](C)NC(=O)CNC(=O)[C@H](Cc1ccccc1)NC(=O)[C@H](CC(N)=O)NC(=O)[C@@H]1CCCN1C(=O)[C@H](CO)NC(=O)[C@H](CO)NC(=O)[C@H](Cc1c[nH]cn1)NC(=O)[C@H](CCCNC(=N)N)NC(=O)[C@H](CC(C)C)NC(=O)[C@H](Cc1ccccc1)NC(=O)[C@H](C)NC(=O)[C@H](C)NC(=O)[C@H](CC(C)C)NC(=O)[C@H](CCCNC(=N)N)NC(=O)[C@H](CCC(N)=O)NC(=O)[C@@H](NC(=O)[C@H](C)NC(=O)[C@@H]1CSSC[C@H](NC(=O)[C@H](CCCNC(=N)N)NC(=O)CNC(=O)CC[C@H](NC(=O)CCCCCCCCCCCCCCCCCCC(=O)O)C(=O)O)C(=O)N[C@@H](CC(N)=O)C(=O)N[C@@H]([C@@H](C)O)C(=O)N[C@@H](C)C(=O)N[C@@H]([C@@H](C)O)C(=O)N1)[C@@H](C)O)C(=O)N1CCC[C@H]1C(=O)N[C@@H](CO)C(=O)N[C@@H](CO)C(=O)N[C@H](C(=O)N[C@@H](CC(N)=O)C(=O)N[C@H](C(=O)NCC(=O)N[C@@H](Cc1c[nH]cn1)C(=O)N[C@@H](CC(N)=O)C(=O)N[C@H](C(=O)N[C@@H](Cc1ccc(O)cc1)C(N)=O)[C@@H](C)O)C(C)C)[C@@H](C)O
B3: N^-1-[(4S)-4-carboxy-4-(19-carboxynonadecanoylamino)butanoyl]-Gly[Arg1,Ala14,Arg17,Pro21,Pro27,Pro34]-h-amylin (peptide)
peptide: {C20 diacid-γGlu}-GRCNTATCATQRLAAFLRHSSPNFGAIPSSTNVGPNTY-NH2
modifications: disulfide 3-8
B4: N^-1-[(4S)-4-carboxy-4-(19-carboxynonadecanoylamino)butanoyl]-Gly[Arg1,His14,Arg17,Pro21,Pro27,Pro34]-h-amylin (peptide)
peptide: {C20 diacid-γGlu}-GRCNTATCATQRLAHFLRHSSPNFGAIPSSTNVGPNTY-NH2
modifications: disulfide 3-8
SMILES: CC[C@H](C)[C@H](NC(=O)[C@H](C)NC(=O)CNC(=O)[C@H](Cc1ccccc1)NC(=O)[C@H](CC(N)=O)NC(=O)[C@@H]1CCCN1C(=O)[C@H](CO)NC(=O)[C@H](CO)NC(=O)[C@H](Cc1c[nH]cn1)NC(=O)[C@H](CCCNC(=N)N)NC(=O)[C@H](CC(C)C)NC(=O)[C@H](Cc1ccccc1)NC(=O)[C@H](Cc1c[nH]cn1)NC(=O)[C@H](C)NC(=O)[C@H](CC(C)C)NC(=O)[C@H](CCCNC(=N)N)NC(=O)[C@H](CCC(N)=O)NC(=O)[C@@H](NC(=O)[C@H](C)NC(=O)[C@@H]1CSSC[C@H](NC(=O)[C@H](CCCNC(=N)N)NC(=O)CNC(=O)CC[C@H](NC(=O)CCCCCCCCCCCCCCCCCCC(=O)O)C(=O)O)C(=O)N[C@@H](CC(N)=O)C(=O)N[C@@H]([C@@H](C)O)C(=O)N[C@@H](C)C(=O)N[C@@H]([C@@H](C)O)C(=O)N1)[C@@H](C)O)C(=O)N1CCC[C@H]1C(=O)N[C@@H](CO)C(=O)N[C@@H](CO)C(=O)N[C@H](C(=O)N[C@@H](CC(N)=O)C(=O)N[C@H](C(=O)NCC(=O)N1CCC[C@H]1C(=O)N[C@@H](CC(N)=O)C(=O)N[C@H](C(=O)N[C@@H](Cc1ccc(O)cc1)C(N)=O)[C@@H](C)O)C(C)C)[C@@H](C)O
B5: N{-1}-[(4S)-4-carboxy-4-(19-carboxynonadecanoylamino)butanoyl]-Gly[Arg1,His14,Arg17,Pro21,Pro27]-h-amylin (peptide)
peptide: {C20 diacid-γGlu}-GRCNTATCATQRLAHFLRHSSPNFGAIPSSTNVGSNTY-NH2
modifications: disulfide 3-8
SMILES: CC[C@H](C)[C@H](NC(=O)[C@H](C)NC(=O)CNC(=O)[C@H](Cc1ccccc1)NC(=O)[C@H](CC(N)=O)NC(=O)[C@@H]1CCCN1C(=O)[C@H](CO)NC(=O)[C@H](CO)NC(=O)[C@H](Cc1c[nH]cn1)NC(=O)[C@H](CCCNC(=N)N)NC(=O)[C@H](CC(C)C)NC(=O)[C@H](Cc1ccccc1)NC(=O)[C@H](Cc1c[nH]cn1)NC(=O)[C@H](C)NC(=O)[C@H](CC(C)C)NC(=O)[C@H](CCCNC(=N)N)NC(=O)[C@H](CCC(N)=O)NC(=O)[C@@H](NC(=O)[C@H](C)NC(=O)[C@@H]1CSSC[C@H](NC(=O)[C@H](CCCNC(=N)N)NC(=O)CNC(=O)CC[C@H](NC(=O)CCCCCCCCCCCCCCCCCCC(=O)O)C(=O)O)C(=O)N[C@@H](CC(N)=O)C(=O)N[C@@H]([C@@H](C)O)C(=O)N[C@@H](C)C(=O)N[C@@H]([C@@H](C)O)C(=O)N1)[C@@H](C)O)C(=O)N1CCC[C@H]1C(=O)N[C@@H](CO)C(=O)N[C@@H](CO)C(=O)N[C@H](C(=O)N[C@@H](CC(N)=O)C(=O)N[C@H](C(=O)NCC(=O)N[C@@H](CO)C(=O)N[C@@H](CC(N)=O)C(=O)N[C@H](C(=O)N[C@@H](Cc1ccc(O)cc1)C(N)=O)[C@@H](C)O)C(C)C)[C@@H](C)O
notes: also called compound 99
B6: N^ε1-[(4S)-4-carboxy-4-(15-carboxypentadecanoylamino)butanoyl]-[Arg17,Pro21,Pro27,His34]-h-amylin (peptide)
peptide: K([γGlu-C16 diacid])CNTATCATQRLANFLRHSSPNFGAIPSSTNVGHNTY-NH2
modifications: disulfide 2-7; N-terminus assumed
SMILES: CC[C@H](C)[C@H](NC(=O)[C@H](C)NC(=O)CNC(=O)[C@H](Cc1ccccc1)NC(=O)[C@H](CC(N)=O)NC(=O)[C@@H]1CCCN1C(=O)[C@H](CO)NC(=O)[C@H](CO)NC(=O)[C@H](Cc1c[nH]cn1)NC(=O)[C@H](CCCNC(=N)N)NC(=O)[C@H](CC(C)C)NC(=O)[C@H](Cc1ccccc1)NC(=O)[C@H](CC(N)=O)NC(=O)[C@H](C)NC(=O)[C@H](CC(C)C)NC(=O)[C@H](CCCNC(=N)N)NC(=O)[C@H](CCC(N)=O)NC(=O)[C@@H](NC(=O)[C@H](C)NC(=O)[C@@H]1CSSC[C@H](NC(=O)[C@@H](N)CCCCNC(=O)CC[C@H](NC(=O)CCCCCCCCCCCCCCC(=O)O)C(=O)O)C(=O)N[C@@H](CC(N)=O)C(=O)N[C@@H]([C@@H](C)O)C(=O)N[C@@H](C)C(=O)N[C@@H]([C@@H](C)O)C(=O)N1)[C@@H](C)O)C(=O)N1CCC[C@H]1C(=O)N[C@@H](CO)C(=O)N[C@@H](CO)C(=O)N[C@H](C(=O)N[C@@H](CC(N)=O)C(=O)N[C@H](C(=O)NCC(=O)N[C@@H](Cc1c[nH]cn1)C(=O)N[C@@H](CC(N)=O)C(=O)N[C@H](C(=O)N[C@@H](Cc1ccc(O)cc1)C(N)=O)[C@@H](C)O)C(C)C)[C@@H](C)O
B7: N^ε1-[(4S)-4-carboxy-4-(13-carboxytridecanoylamino)butanoyl]-[Arg17,Pro21,Pro27,His34]-h-amylin (peptide)
peptide: K([γGlu-C14 diacid])CNTATCATQRLANFLRHSSPNFGAIPSSTNVGHNTY-NH2
modifications: disulfide 2-7; N-terminus assumed
SMILES: CC[C@H](C)[C@H](NC(=O)[C@H](C)NC(=O)CNC(=O)[C@H](Cc1ccccc1)NC(=O)[C@H](CC(N)=O)NC(=O)[C@@H]1CCCN1C(=O)[C@H](CO)NC(=O)[C@H](CO)NC(=O)[C@H](Cc1c[nH]cn1)NC(=O)[C@H](CCCNC(=N)N)NC(=O)[C@H](CC(C)C)NC(=O)[C@H](Cc1ccccc1)NC(=O)[C@H](CC(N)=O)NC(=O)[C@H](C)NC(=O)[C@H](CC(C)C)NC(=O)[C@H](CCCNC(=N)N)NC(=O)[C@H](CCC(N)=O)NC(=O)[C@@H](NC(=O)[C@H](C)NC(=O)[C@@H]1CSSC[C@H](NC(=O)[C@@H](N)CCCCNC(=O)CC[C@H](NC(=O)CCCCCCCCCCCCC(=O)O)C(=O)O)C(=O)N[C@@H](CC(N)=O)C(=O)N[C@@H]([C@@H](C)O)C(=O)N[C@@H](C)C(=O)N[C@@H]([C@@H](C)O)C(=O)N1)[C@@H](C)O)C(=O)N1CCC[C@H]1C(=O)N[C@@H](CO)C(=O)N[C@@H](CO)C(=O)N[C@H](C(=O)N[C@@H](CC(N)=O)C(=O)N[C@H](C(=O)NCC(=O)N[C@@H](Cc1c[nH]cn1)C(=O)N[C@@H](CC(N)=O)C(=O)N[C@H](C(=O)N[C@@H](Cc1ccc(O)cc1)C(N)=O)[C@@H](C)O)C(C)C)[C@@H](C)O

Tests used:
[1] = target: T1, human calcitonin receptor; assay: SPA radioligand competition (125I-calcitonin), membranes of BHK cells with human calcitonin receptor
Method in brief: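 BHK hCTR membranes 35 ng/μL + SPA beads 0.05 mg/well; buffer 50 mM Hepes pH 7.4, 1 mM CaCl2, 5 mM MgCl₂, 0.1% OA, 0.02% Tween20. 120 min, 25° C., shaking. Scintillation count; IC50 by one-site binding competition.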

[2] = target: T1, human calcitonin receptor; assay: ratio of IC50 at human calcitonin receptor to IC50 at human amylin receptor (SPA competition assays)
Method in brief: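 Scintillation proximity competition binding on cell membranes at 35 ng/μL with SPA beads, in 50 mM Hepes pH 7.4, 1 mM CaCl2, 5 mM MgCl₂, 0.1% OA, 0.02% Tween20. Incubated 120 min at 25° C with shaking. IC₅₀ from one-site competition fit.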

IC50 [1] | Ratio hCT/hAmylin binding [2] | Binder
66.3 nM | 65.3 | B1
29.2 nM | 68.6 | B2
3 nM | 26.5 | B3
7.87 nM | 36.2 | B4
35 nM | 100 | B5
10.8 nM | 18.5 | B6
24.3 nM | 23.5 | B7
